Test results taken from patent publication US20040208880.

Columns and labels:
[1] = molecular target: T1, GST fusion containing the C-terminal 19 amino acids of DLC1/PIN
T1 chain: KHFIYFYLGQVAILLFKSG

[2] = molecular target: GST-DLC1/PIN fusion protein (wild type)
[3] = molecular target: GST-DLC1/PIN with deletion of Ser88

B1: GST-Pak1 fusion protein, wild-type (amino acids 1-545) (protein)
chain: MSNNGLDIQDKPPAPPMRNTSTMIGVGSKDAGTLNHGSKPLPPNPEEKKKKDRFYRSILPGDKTNKKKEKERPEISLPSDFEHTIHVGFDAVTGEFTGMPEQWARLLQTSNITKSEQKKNPQAVLDVLEFYNSKKTSNSQKYMSFTDKSAEDYNSSNALNVKAVSETPAVPPVSEDEDDDDDDATPPPVIAPRPEHTKSVYTRSVIEPLPVTPTRDVATSPISPTENNTTPPDALTRNTEKQKKKPKMSDEEILEKLRSIVSVGDPKKKYTRFEKIGQGASGTVYTAMDVATGQEVAIKQMNLQQQPKKELIINEILVMRENKNPNIVNYLDSYLVGDELWVVMEYLAGGSLTDVVTETCMDEGQIAAVCRECLQALEFLHSNQVIHRDIKSDNILLGMDGSVKLTDFGFCAQITPEQSKRSTMVGTPYWMAPEVVTRKAYGPKVDIWSLGIMAIEMIEGEPPYLNENPLRALYLIATNGTPELQNPEKLSAIFRDFLNRCLDMDVEKRGSAKELLQHQFLKIAKPLSSLTPLIAAAKEATKNNH
B1 was tested, and the “in vitro kinase assay with DLC1/PIN deletions” value [1] was “GST fusion containing the C-terminal 19 amino acids of DLC1/PIN was efficiently phosphorylated by Pak1”, the “in vitro kinase assay (phosphorylation of GST-DLC1/PIN by purified Pak1 enzyme)” value [2] was “The Pak1 enzyme efficiently phosphorylated DLC1/PIN” and the “in vitro kinase assay with DLC1/PIN deletions” value [3] was “Deletion of Ser88 of DLC1/PIN completely abolished the ability of the Pak1 to phosphorylate DLC1/PIN”.
